The text below walks through data of PMC4312099 (Nature, 2014).

The target in the assay is recombinant human core Mitotic Checkpoint Complex (untagged CDC20, SBP-BUBR1, His6-MAD2) (human, UniProt Q12834;O60566;Q13257). Nature of the assay: pull-down.
Chain of recombinant human core Mitotic Checkpoint Complex (untagged CDC20, SBP-BUBR1, His6-MAD2) (O60566 whole entry, chain 2 of 2): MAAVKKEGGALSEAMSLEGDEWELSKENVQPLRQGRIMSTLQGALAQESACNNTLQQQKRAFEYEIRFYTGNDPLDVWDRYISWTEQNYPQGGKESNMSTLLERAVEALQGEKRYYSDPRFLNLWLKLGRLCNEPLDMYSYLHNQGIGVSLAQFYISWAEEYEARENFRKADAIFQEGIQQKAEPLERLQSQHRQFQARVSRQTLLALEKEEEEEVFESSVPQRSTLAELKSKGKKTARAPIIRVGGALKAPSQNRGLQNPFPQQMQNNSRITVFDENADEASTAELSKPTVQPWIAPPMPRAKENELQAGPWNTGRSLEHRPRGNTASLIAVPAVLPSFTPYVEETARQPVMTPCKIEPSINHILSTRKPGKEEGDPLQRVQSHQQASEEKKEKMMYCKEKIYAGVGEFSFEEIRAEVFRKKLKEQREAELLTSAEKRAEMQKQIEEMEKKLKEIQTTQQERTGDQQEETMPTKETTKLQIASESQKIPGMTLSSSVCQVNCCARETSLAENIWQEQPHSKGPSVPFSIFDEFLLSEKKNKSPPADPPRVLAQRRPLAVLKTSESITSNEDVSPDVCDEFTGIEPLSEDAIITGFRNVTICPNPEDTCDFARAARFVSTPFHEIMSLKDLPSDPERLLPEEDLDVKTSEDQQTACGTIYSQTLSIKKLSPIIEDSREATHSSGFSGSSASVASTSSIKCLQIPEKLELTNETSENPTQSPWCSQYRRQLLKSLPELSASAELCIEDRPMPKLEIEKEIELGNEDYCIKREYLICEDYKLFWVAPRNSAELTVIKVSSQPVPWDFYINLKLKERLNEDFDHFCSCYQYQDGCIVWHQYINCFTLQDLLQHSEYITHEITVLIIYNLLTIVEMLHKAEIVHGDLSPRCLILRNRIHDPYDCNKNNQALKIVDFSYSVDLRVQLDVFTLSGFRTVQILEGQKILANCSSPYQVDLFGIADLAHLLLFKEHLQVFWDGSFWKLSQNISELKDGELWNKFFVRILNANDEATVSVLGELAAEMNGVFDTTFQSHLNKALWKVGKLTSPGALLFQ
Chain of recombinant human core Mitotic Checkpoint Complex (untagged CDC20, SBP-BUBR1, His6-MAD2) (Q13257 whole entry, chain 3 of 2): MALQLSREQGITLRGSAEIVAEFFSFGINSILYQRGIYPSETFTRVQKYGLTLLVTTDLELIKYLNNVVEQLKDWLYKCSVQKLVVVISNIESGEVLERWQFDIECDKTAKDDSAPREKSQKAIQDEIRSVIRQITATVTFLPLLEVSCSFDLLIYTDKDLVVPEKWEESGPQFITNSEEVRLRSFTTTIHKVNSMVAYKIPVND

B1: recombinant His6-tagged CDC20 ΔKILR (K129ILR/AAAA) mutant (natural protein)
chain: MAQFAFESDLHSLLQLDAPIPNAPPARWQRKAKEAAGPAPSPMRAANRSHSAGRTPGRTPGKSSSKVQTTPSKPGGDRYIPHRSAAQMEVASFLLSKENQPENSQTPTKKEHQKAWALNLNGFDVEEAAAAALSGKPQNAPEGYQNRLKVLYSQKATPGSSRKTCRYIPSLPDRILDAPEIRNDYYLNLVDWSSGNVLAVALDNSVYLWSASSGDILQLLQMEQPGEYISSVAWIKEGNYLAVGTSSAEVQLWDVQQQKRLRNMTSHSARVGSLSWNSYILSSGSRSGHIHHHDVRVAEHHVATLSGHSQEVCGLRWAPDGRHLASGGNDNLVNVWPSAPGEGGWVPLQTFTQHQGAVKAVAWCPWQSNVLATGGGTSDRHIRIWNVCSGACLSAVDAHSQVCSILWSPHYKELISGHGFAQNQLVIWKYPTMAKVAELKGHTSRVLSLTMSPDGATVASAAADETLRLWRCFELDPARRREREKASAAKSSLIHQGIR
On to B1, for which the binding result is on record as “binds”.
